We go through nine molecules from patent US20260092110A1 (Kyowa Kirin, published 2026).

To fix the notation:
B1: AVM IgG4PE(R409K)_MOG01dscFv6 antibody (bispecific antibody)
heavy: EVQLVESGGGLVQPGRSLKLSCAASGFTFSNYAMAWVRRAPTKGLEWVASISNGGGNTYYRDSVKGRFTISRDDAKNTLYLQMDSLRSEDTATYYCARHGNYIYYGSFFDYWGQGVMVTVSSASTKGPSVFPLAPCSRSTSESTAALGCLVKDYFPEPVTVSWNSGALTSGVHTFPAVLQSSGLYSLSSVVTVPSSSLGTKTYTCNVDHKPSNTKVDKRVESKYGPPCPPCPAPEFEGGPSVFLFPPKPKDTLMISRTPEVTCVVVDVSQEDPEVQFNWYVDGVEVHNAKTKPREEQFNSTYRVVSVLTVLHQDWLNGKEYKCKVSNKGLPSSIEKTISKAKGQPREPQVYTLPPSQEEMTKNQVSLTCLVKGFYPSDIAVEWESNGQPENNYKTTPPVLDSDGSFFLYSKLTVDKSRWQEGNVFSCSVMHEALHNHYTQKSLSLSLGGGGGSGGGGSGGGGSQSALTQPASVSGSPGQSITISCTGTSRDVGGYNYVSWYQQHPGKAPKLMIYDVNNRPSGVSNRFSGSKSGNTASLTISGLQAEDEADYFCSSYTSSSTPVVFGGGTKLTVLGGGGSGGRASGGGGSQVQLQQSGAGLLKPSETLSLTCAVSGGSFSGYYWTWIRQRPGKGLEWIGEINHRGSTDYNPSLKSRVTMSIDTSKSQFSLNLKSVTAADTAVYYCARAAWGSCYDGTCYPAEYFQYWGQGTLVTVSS
light: QFVLSQPNSVSTNLGSTVKLSCKRSTGNIGSNYVSWYQQHEGRSPTTMIYRDDKRPDGVPDRFSGSIDRSSDSALLTINNVQTEDEADYFCQSYSSGINIFGGGTKLTVLGQPKAAPSVTLFPPSSEELQANKATLVCLISDFYPGAVTVAWKADSSPVKAGVETTTPSKQSNNKYAASSYLSLTPEQWKSHRSYSCQVTHEGSTVEKTVAPTECS
notes: also called pCI-AVM-hLG4PE(R409K)_MOG01scFv6
B2: AVM IgG4PE(R409K)_MOG01dscFv7 antibody (bispecific antibody)
heavy: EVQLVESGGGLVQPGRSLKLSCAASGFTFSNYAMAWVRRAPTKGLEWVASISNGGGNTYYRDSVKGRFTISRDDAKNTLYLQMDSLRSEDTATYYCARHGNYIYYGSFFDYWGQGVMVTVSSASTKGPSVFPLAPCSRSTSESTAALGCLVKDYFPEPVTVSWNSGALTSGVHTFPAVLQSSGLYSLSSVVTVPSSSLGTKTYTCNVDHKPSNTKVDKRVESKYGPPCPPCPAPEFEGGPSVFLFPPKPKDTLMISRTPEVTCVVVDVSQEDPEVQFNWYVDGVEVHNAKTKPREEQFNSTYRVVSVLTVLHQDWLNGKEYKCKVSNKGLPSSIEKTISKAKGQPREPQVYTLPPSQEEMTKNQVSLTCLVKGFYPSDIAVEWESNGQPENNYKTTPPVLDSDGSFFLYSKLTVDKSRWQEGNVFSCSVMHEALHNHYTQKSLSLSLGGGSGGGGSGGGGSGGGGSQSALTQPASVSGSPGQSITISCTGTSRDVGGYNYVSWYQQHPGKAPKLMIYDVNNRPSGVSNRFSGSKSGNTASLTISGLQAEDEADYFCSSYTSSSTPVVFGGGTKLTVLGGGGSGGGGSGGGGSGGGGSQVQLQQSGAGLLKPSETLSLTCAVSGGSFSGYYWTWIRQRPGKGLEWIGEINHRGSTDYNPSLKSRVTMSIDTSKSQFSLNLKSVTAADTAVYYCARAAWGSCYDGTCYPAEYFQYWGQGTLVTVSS
light: B1 light
notes: also called pCI-AVM-hLG4PE(R409K)_MOG01scFv7
B3: AVM-MOG01 IgG4PE(R409K) antibody (bispecific antibody)
heavy 1: EVQLVESGGGLVQPGRSLKLSCAASGFTFSNYAMAWVRRAPTKGLEWVASISNGGGNTYYRDSVKGRFTISRDDAKNTLYLQMDSLRSEDTATYYCARHGNYIYYGSFFDYWGQGVMVTVSSASTKGPSVFPLAPCSRSTSESTAALGCLVKDYFPEPVTVSWNSGALTSGVHTFPAVLQSSGLYSLSSVVTVPSSSLGTKTYTCNVDHKPSNTKVDKRVESKYGPPCPPCPAPEFEGGPSVFLFPPKPKDTLMISRTPEVTCVVVDVSQEDPEVQFNWYVDGVEVHNAKTKPREEQFNSTYRVVSVLTVLHQDWLNGKEYKCKVSNKGLPSSIEKTISKAKGQPREPQVYTLPPCQEEMTKNQVSLWCLVKGFYPSDIAVEWESNGQPENNYKTTPPVLDSDGSFFLYSKLTVDKSRWQEGNVFSCSVMHEALHNHYTQKSLSLSLGKDYKDDDDK
heavy 2: QVQLQQSGAGLLKPSETLSLTCAVSGGSFSGYYWTWIRQRPGKGLEWIGEINHRGSTDYNPSLKSRVTMSIDTSKSQFSLNLKSVTAADTAVYYCARAAWGSCYDGTCYPAEYFQYWGQGTLVTVSSASTKGPSVFPLAPCSRSTSESTAALGCLVKDYFPEPVTVSWNSGALTSGVHTFPAVLQSSGLYSLSSVVTVPSSSLGTKTYTCNVDHKPSNTKVDKRVESKYGPPCPPCPAPEFEGGPSVFLFPPKPKDTLMISRTPEVTCVVVDVSQEDPEVQFNWYVDGVEVHNAKTKPREEQFNSTYRVVSVLTVLHQDWLNGKEYKCKVSNKGLPSSIEKTISKAKGQPREPQVCTLPPSQEEMTKNQVSLSCAVKGFYPSDIAVEWESNGQPENNYKTTPPVLDSDGSFFLVSKLTVDKSRWQEGNVFSCSVMHEALHNHYTQKSLSLSLGKHHHHHH
light 1: B1 light
light 2: QSALTQPASVSGSPGQSITISCTGTSRDVGGYNYVSWYQQHPGKAPKLMIYDVNNRPSGVSNRFSGSKSGNTASLTISGLQAEDEADYFCSSYTSSSTPVVFGGGTKLTVLGQPKAAPSVTLFPPSSEELQANKATLVCLISDFYPGAVTVAWKADSSPVKAGVETTTPSKQSNNKYAASSYLSLTPEQWKSHRSYSCQVTHEGSTVEKTVAPTECS
notes: copies: 1 + 1 + 1 + 1
B4: AVM IgG4PE(R409K)_MOG01sscFv antibody (bispecific antibody)
heavy 1: EVQLVESGGGLVQPGRSLKLSCAASGFTFSNYAMAWVRRAPTKGLEWVASISNGGGNTYYRDSVKGRFTISRDDAKNTLYLQMDSLRSEDTATYYCARHGNYIYYGSFFDYWGQGVMVTVSSASTKGPSVFPLAPCSRSTSESTAALGCLVKDYFPEPVTVSWNSGALTSGVHTFPAVLQSSGLYSLSSVVTVPSSSLGTKTYTCNVDHKPSNTKVDKRVESKYGPPCPPCPAPEFEGGPSVFLFPPKPKDTLMISRTPEVTCVVVDVSQEDPEVQFNWYVDGVEVHNAKTKPREEQFNSTYRVVSVLTVLHQDWLNGKEYKCKVSNKGLPSSIEKTISKAKGQPREPQVYTLPPCQEEMTKNQVSLWCLVKGFYPSDIAVEWESNGQPENNYKTTPPVLDSDGSFFLYSKLTVDKSRWQEGNVFSCSVMHEALHNHYTQKSLSLSLGGGSGGGGSGGGGSGGGGSQVQLQQSGAGLLKPSETLSLTCAVSGGSFSGYYWTWIRQRPGKGLEWIGEINHRGSTDYNPSLKSRVTMSIDTSKSQFSLNLKSVTAADTAVYYCARAAWGSCYDGTCYPAEYFQYWGQGTLVTVSSGGGGSGGRASGGGGSQSALTQPASVSGSPGQSITISCTGTSRDVGGYNYVSWYQQHPGKAPKLMIYDVNNRPSGVSNRFSGSKSGNTASLTISGLQAEDEADYFCSSYTSSSTPVVFGGGTKLTVLDYKDDDDK
heavy 2: EVQLVESGGGLVQPGRSLKLSCAASGFTFSNYAMAWVRRAPTKGLEWVASISNGGGNTYYRDSVKGRFTISRDDAKNTLYLQMDSLRSEDTATYYCARHGNYIYYGSFFDYWGQGVMVTVSSASTKGPSVFPLAPCSRSTSESTAALGCLVKDYFPEPVTVSWNSGALTSGVHTFPAVLQSSGLYSLSSVVTVPSSSLGTKTYTCNVDHKPSNTKVDKRVESKYGPPCPPCPAPEFEGGPSVFLFPPKPKDTLMISRTPEVTCVVVDVSQEDPEVQFNWYVDGVEVHNAKTKPREEQFNSTYRVVSVLTVLHQDWLNGKEYKCKVSNKGLPSSIEKTISKAKGQPREPQVCTLPPSQEEMTKNQVSLSCAVKGFYPSDIAVEWESNGQPENNYKTTPPVLDSDGSFFLVSKLTVDKSRWQEGNVFSCSVMHEALHNHYTQKSLSLSLGKHHHHHH
light: B1 light
notes: copies: 1 + 1 + 2
B5: AVM IgG4PE(R409K)_MOG01 Fab antibody (bispecific antibody)
heavy 1: not shown
heavy 2: QVQLQQSGAGLLKPSETLSLTCAVSGGSFSGYYWTWIRQRPGKGLEWIGEINHRGSTDYNPSLKSRVTMSIDTSKSQFSLNLKSVTAADTAVYYCARAAWGSCYDGTCYPAEYFQYWGQGTLVTVSSASTKGPSVFPLAPCSRSTSESTAALGCLVKDYFPEPVTVSWNSGALTSGVHTFPAVLQSSGLYSLSSVVTVPSSSLGTKTYTCNVDHKPSNTKVDKRV
light: B1 light
B6: AVM IgG4PE(R409K)_MOG01dscFv10 antibody (bispecific antibody)
heavy: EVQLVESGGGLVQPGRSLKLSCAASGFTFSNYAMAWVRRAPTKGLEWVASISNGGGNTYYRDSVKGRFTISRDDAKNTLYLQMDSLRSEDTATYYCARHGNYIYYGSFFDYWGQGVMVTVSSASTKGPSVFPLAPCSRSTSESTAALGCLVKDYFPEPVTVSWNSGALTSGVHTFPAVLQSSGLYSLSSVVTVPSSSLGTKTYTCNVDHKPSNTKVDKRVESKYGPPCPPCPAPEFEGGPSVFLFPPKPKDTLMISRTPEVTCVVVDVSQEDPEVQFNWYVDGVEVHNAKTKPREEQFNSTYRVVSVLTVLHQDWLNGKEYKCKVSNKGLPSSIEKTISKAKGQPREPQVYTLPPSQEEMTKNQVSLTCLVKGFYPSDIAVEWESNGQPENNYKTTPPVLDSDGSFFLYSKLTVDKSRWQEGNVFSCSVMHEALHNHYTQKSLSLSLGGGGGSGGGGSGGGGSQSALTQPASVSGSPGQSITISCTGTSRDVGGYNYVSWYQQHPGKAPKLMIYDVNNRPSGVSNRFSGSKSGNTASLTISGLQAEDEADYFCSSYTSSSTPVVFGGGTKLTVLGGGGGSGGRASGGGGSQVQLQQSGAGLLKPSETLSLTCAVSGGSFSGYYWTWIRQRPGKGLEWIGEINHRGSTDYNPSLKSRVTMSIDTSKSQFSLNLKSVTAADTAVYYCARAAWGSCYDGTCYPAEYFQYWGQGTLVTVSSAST
light: B1 light
notes: also called AVM IgG4PE(R409K)_MOG01dscFvlO antibody; pCI-AVM-hLG4PE(R409K)_MOG01scFv10
B7: AVM IgG4PE(R409K)_AVM Fab ANTIBODY (antibody)
heavy 1: not shown
heavy 2: EVQLVESGGGLVQPGRSLKLSCAASGFTFSNYAMAWVRRAPTKGLEWVASISNGGGNTYYRDSVKGRFTISRDDAKNTLYLQMDSLRSEDTATYYCARHGNYIYYGSFFDYWGQGVMVTVSSASTKGPSVFPLAPCSRSTSESTAALGCLVKDYFPEPVTVSWNSGALTSGVHTFPAVLQSSGLYSLSSVVTVPSSSLGTKTYTCNVDHKPSNTKVDKRV
light: B1 light
B8: AVM IgG4PE(R409K)_MOG01dscFv11 antibody (bispecific antibody)
heavy: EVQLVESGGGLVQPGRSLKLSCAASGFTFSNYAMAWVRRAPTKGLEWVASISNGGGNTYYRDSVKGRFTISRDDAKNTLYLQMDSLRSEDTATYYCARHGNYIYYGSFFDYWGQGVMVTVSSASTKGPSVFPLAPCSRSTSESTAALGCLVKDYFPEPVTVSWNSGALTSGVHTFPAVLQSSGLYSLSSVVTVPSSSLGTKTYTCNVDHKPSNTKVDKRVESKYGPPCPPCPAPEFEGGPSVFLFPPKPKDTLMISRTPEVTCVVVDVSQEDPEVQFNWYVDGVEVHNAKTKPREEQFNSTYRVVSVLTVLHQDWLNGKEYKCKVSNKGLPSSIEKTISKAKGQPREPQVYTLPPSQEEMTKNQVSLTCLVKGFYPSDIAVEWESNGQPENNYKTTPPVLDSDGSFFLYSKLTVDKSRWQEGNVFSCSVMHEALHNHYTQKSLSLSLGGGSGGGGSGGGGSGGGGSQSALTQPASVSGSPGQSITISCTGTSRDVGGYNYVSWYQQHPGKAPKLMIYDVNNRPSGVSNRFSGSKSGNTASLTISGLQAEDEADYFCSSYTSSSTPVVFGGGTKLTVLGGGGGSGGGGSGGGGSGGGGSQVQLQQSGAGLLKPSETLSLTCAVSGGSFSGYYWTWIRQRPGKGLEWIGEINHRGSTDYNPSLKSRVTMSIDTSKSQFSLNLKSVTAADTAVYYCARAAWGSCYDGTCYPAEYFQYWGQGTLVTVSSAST
light: B1 light
notes: also called pCI-AVM-hLG4PE(R409K)_MOG01scFv11
B9: AVM IgG4PE(R409K)_AVMsscFv ANTIBODY (antibody)
heavy 1: EVQLVESGGGLVQPGRSLKLSCAASGFTFSNYAMAWVRRAPTKGLEWVASISNGGGNTYYRDSVKGRFTISRDDAKNTLYLQMDSLRSEDTATYYCARHGNYIYYGSFFDYWGQGVMVTVSSASTKGPSVFPLAPCSRSTSESTAALGCLVKDYFPEPVTVSWNSGALTSGVHTFPAVLQSSGLYSLSSVVTVPSSSLGTKTYTCNVDHKPSNTKVDKRVESKYGPPCPPCPAPEFEGGPSVFLFPPKPKDTLMISRTPEVTCVVVDVSQEDPEVQFNWYVDGVEVHNAKTKPREEQFNSTYRVVSVLTVLHQDWLNGKEYKCKVSNKGLPSSIEKTISKAKGQPREPQVYTLPPCQEEMTKNQVSLWCLVKGFYPSDIAVEWESNGQPENNYKTTPPVLDSDGSFFLYSKLTVDKSRWQEGNVFSCSVMHEALHNHYTQKSLSLSLGGGSGGGGSGGGGSGGGGSEVQLVESGGGLVQPGRSLKLSCAASGFTFSNYAMAWVRRAPTKGLEWVASISNGGGNTYYRDSVKGRFTISRDDAKNTLYLQMDSLRSEDTATYYCARHGNYIYYGSFFDYWGQGVMVTVSSGGGGSGGRASGGGGSQFVLSQPNSVSTNLGSTVKLSCKRSTGNIGSNYVSWYQQHEGRSPTTMIYRDDKRPDGVPDRFSGSIDRSSDSALLTINNVQTEDEADYFCQSYSSGINIFGGGTKLTVLDYKDDDDK
heavy 2: B4 heavy 2
light: B1 light

Usually Kd stands for the concentration at which binding is half-saturated. Lower therefore signals tighter binding. For orientation: koff means the rate constant with which the complex falls apart. A higher koff goes with fast dissociation. By kon is commonly meant the second-order rate constant of association. Higher therefore signals fast association.

One test has as its target T1, human MOG (hMOG) expressed on HEK293, Expi293F or L929 cells (human, UniProt Q16653 30-247).
T1 construct: also called hMOG/HEK293; hMOG/HEK293F
T1 chain: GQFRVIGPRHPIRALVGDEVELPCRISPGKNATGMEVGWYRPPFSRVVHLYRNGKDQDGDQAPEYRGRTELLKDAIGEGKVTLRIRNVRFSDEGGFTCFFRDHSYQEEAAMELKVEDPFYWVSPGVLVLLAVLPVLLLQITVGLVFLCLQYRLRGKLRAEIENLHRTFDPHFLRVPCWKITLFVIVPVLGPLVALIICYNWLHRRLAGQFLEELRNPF
In words: flow cytometry, hMOG/L929 cells. The source says: (§1) pEF6_hMOG obtained in Example 5 was introduced to mouse connective tissue-derived fibroblast L929 cells [American Type Culture Collection (ATCC) No.: CCL-1] using HilyMax (manufactured by Dojindo Laboratories). The gene-transfected cells were selected using an antibiotic substance, Blasticidin (manufactured by Invitrogen) and then cloned by the limiting dilution method. Using the L929 cells expressing hMOG on the cell surface (abbreviated as hMOG/L929 below), the reactivities of the bispecific antibodies were analyzed by the method described below.
(§2) The hMOG/L929 cells were suspended in a Staining Buffer (SB) of PBS containing 0.1% NaN₃ and 1% FBS and dispensed to a round-bottom 96-well plate (manufactured by Becton Dickinson). […] After suspending the pellets, the plate was left to stand at ice temperature for 30 minutes. The supernatants were removed after further centrifugation (2000 rpm, 4° C., two minutes), and the pellets were washed with SB. Then, 1 μg/mL RPE fluorescently labeled goat anti-human antibody (manufactured by Southern Biotech) was added, and the plate was incubated at ice temperature for 30 minutes. After washing with SB, the cells were suspended in SB, and the fluorescence intensities of the cells were measured with a flow cytometer FACS CANTO II (manufactured by Becton Dickinson). The results are shown in FIGS. 12A to 12C and FIGS. 13A and 13B.
(In general: In flow cytometry, cells or beads pass a laser one at a time.)
Turning to B1, the binding result is recorded as “binds”.
Consider B2, for which the binding result is reported as “binds”.

For a further test, the target named is T2, extracellular domain protein of rat MOG to which GST is added at the C-terminus (rMOG-GST) (rat).
T2 construct: whole construct entry
T2 sequence (chain, as listed by the source limits assumed): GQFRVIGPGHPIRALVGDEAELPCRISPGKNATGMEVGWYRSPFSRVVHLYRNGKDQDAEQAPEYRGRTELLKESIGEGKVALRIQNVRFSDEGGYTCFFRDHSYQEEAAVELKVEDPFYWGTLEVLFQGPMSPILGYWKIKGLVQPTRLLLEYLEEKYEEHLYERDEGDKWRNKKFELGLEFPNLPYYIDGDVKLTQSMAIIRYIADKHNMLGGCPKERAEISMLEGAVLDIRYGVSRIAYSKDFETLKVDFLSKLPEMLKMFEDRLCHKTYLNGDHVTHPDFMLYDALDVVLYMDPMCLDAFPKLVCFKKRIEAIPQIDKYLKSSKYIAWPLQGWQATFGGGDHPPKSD
In words: SPR as in Example 8 (antibody captured, rMOG-GST analyte). The procedure: The antibodies were immobilized on CM5 sensor chips using a Human antibody Capture kit, and the binding abilities were evaluated using rMOG-GST produced in Example 4 as an analyte. The obtained sensorgrams were analyzed with BIA evaluation software, and the dissociation constants (KD values) were thus calculated.
Binding of the bispecific antibodies obtained in Example 6 and Example 16 to MOG was evaluated by the same method as that of Example 8.
B3 yielded a Kd of 12 nM, a koff of 0.0016 s⁻¹ and a kon of 130000 M⁻¹ s⁻¹.
B4 came in with a Kd of 200 nM, a koff of 0.01 s⁻¹ and an association rate constant (kon) of 51000 M⁻¹ s⁻¹.
Regarding B5, binding was characterised by a dissociation constant (Kd) of 34 nM, the koff was found to be 0.0035 s⁻¹ and the kon came to 100000 M⁻¹ s⁻¹.

The target in a further test is T1, human MOG (hMOG) expressed on HEK293, …. In words: flow cytometry on L929 cells expressing human MOG (hMOG/L929); antibody titrated, RPE-labelled goat anti-human antibody.
Source text: as §1, §2
On to B3, for which the binding result is reported as “binds”.
On to B4, for which the binding result is listed as “binds”.
For the molecule B6, the binding result is “binds”.
On to B7, for which the binding result is reported as “no binding”.
Same read-out and setting: the same measure for B8: “binds”; for B9: “no binding”; for B5: “binds”.
